Seven molecules from patent US20250051437A1 (University of California, published 2025) can be followed below.

In assay [1] the target is T1, human cadherin-17 (CDH17), endogenously expressed on human cancer cell lines (LS513, SNU-C1, PaTu8988s, … (human, UniProt Q12864 23-832)).
T1 construct: also called LS513 (Colon, CDH17+); HPAF2
In words: indirect flow cytometry (iQue) on LS513 cells (CDH17+), anti-His secondary antibody. On the procedure: Bispecific antibodies and scFv fragments were assessed for their binding effect to CDH17 positive cells by an indirect flow cytometry assay iQue® (Sartorius, Gottingen, Germany). The asssays were performed with CDH17 positive LS513 cells or CDH17 negative M202 cells using the primary antibody and fluorochrome-labeled anti-His secondary antibody using the iQue® where FL4-H values acquired by iQue® software were reported.
A general note: A flow cytometer gives signals particle by particle.

The target in assay [2] is T1, human cadherin-17 (CDH17), endogenously …. The experiment in a line: flow cytometry of the ADC on LS513 cells (CDH17+), 20 µg/ml.
Assay [3] shares this target. In words: KinExA, cell-based, SNUC1 cells. (In general: A kinetic exclusion assay measures how much of one partner remains free in solution.)
The target in assay [4] is T2, rat CDH17 fused to moxGFP, overexpressed on HEK293T cells (rat, UniProt P55281 22-827).
T2 construct: whole, on cells; also called HEK293T Rat CDH17mGFP mass pop; rat CDH17-moxGFP
The experiment in a line: flow cytometry on HEK293T rat CDH17mGFP mass population, 20 µg/ml.

The target of assay [5] is T1, human cadherin-17 (CDH17), endogenously …. In words: flow cytometry (iQue) on SNUC1 cells, 0.2 µg Ab.
For assay [6] the target is unchanged. The experiment in a line: flow cytometry (iQue) on LS513 cells, 0.2 µg Ab.
The target in assay [7] is T3, human CDH17-mGFP fusion protein overexpressed on HEK293T cells (clone G11) (human, UniProt Q12864 23-832).
T3 construct: also called HEK293T CDH17mGFP Clone G11; HEK293T Human CDH17mGFP G11; not shown: mGFP fluorescent protein fused to CDH17
The experiment in a line: KinExA, cell-based, HEK293T overexpressing human CDH17-mGFP (FIG. 16). On the procedure: (§1) The cell-based antibody affinity (KD) of the anti-CDH17 antibodies was measured by KinExA 4000 (Sapidyne Instrument, Boise, Idaho). Briefly, HEK293T overexpressing CDH17-fluorescent protein fusion (i.e., human CDH17-mGFP, monkey CDH17-mGFP, mouse CDH17-mGFP or rat CDH17-mGFP) were detached with Versene and equilibrated with either 50 pM, 200 pM, 20 nM, or 50 nM antibody in 2% FBS/DMEM at 4° C. overnight. The cell concentration started at 5×10⁶ cells/mL or 1×10⁷ cells/mL and 2-fold serial dilutions were performed up to 10 points. The next day, the cells were centrifuged at 1500 rpm for 10 min and the supernatants were saved. […] In contrast, while the humanized anti-CDH17 antibody, 07-0653-h43, fails to bind mouse CDH17 protein, it binds rat CDH17 protein equally well as to human and monkey CDH17 protein such that its Kp is less than about 1 nM for human, monkey and rat CDH17 proteins with overlapping 95% confidence interval values.

The target in assay [8] is T4, mouse CDH17-mGFP fusion protein overexpressed on HEK293T cells (mouse, UniProt Q9R100 26-827).
T4 construct: also called HEK293T Mouse CDH17mGFP mass; not shown: mGFP fluorescent protein
The experiment in a line: flow cytometry (BD C6) on HEK293T Mouse CDH17 mGFP cells. On the procedure: (§2) To determine relative antigen binding strengths of the humanized antibodies, FACS assays were carried out as essentially described in Example 1. […] Using a BD Biosciences Accuri™ C6 Flow Cytometer (San Jose, CA), antibody binding based on Alexa Fluor® 647 fluorescence was measured in the FL4-H channel and fusion protein overexpression based on GFP fluorescence was measured in the FL1-H channel.

Assay [9] concerns the target T1, human cadherin-17 (CDH17), endogenously …. The experiment in a line: flow cytometry (iQue) on PATU8988S cells, 1 µg Ab.
The target is the same in assay [10]. The experiment in a line: flow cytometry (iQue) on PATU8988S cells, 0.2 µg Ab.
For assay [11], the target named is T3, human CDH17-mGFP fusion protein …. The experiment in a line: flow cytometry on HEK293T human CDH17mGFP G11, 20 µg/ml.
Assay [12] has the same target. In words: flow cytometry (iQue) on HEK293T CDH17 mGFP clone G11 (human), 1 µg Ab.
The target is the same in assay [13]. In words: KinExA, cell-based, HEK293T CDH17mGFP clone G11. On the procedure:
as §1

Assay [14] has the same target. In words: flow cytometry (iQue) on HEK293T CDH17 mGFP clone G11 (human), 0.2 µg Ab.
Assay [15] deals with T1, human cadherin-17 (CDH17), endogenously …. The experiment in a line: flow cytometry on LS513 cells (CDH17+), 20 µg/ml.
The target of assay [16] is T3, human CDH17-mGFP fusion protein …. In words: KinExA, cell-based, HEK293T human CDH17mGFP G11 (same value as r12). On the procedure:
as §1

Assay [17] concerns the target T5, recombinant CDH17 extracellular domain (ECD) with 6x His tag (human, UniProt Q12864 23-787).
T5 construct: also called Recombinant CDH17 ECD-6xhis tag
In words: ELISA on recombinant CDH17 ECD-6xHis.

Assay [18] concerns the target T1, human cadherin-17 (CDH17), endogenously …. In words: flow cytometry (iQue) on LS513 cells, 1 µg Ab.
Assay [19] addresses T2, rat CDH17 fused to moxGFP, …. The experiment in a line: flow cytometry (BD C6) on HEK293T Rat CDH17 moxGFP cells. On the procedure: as §2
Assay [20] concerns the target T1, human cadherin-17 (CDH17), endogenously …. In words: flow cytometry (iQue) on SNUC1 cells, 1 µg Ab.
The target of assay [21] is T4, mouse CDH17-mGFP fusion protein …. In words: flow cytometry on HEK293T mouse CDH17mGFP mass population, 20 µg/ml.

The term Kd denotes the constant that tells how readily two partners part at equilibrium. A high value points to a looser complex. As a reminder, the EC50 is the concentration needed to bring the measured effect to its halfway point.

T4 sequence (Q9R100 26-827): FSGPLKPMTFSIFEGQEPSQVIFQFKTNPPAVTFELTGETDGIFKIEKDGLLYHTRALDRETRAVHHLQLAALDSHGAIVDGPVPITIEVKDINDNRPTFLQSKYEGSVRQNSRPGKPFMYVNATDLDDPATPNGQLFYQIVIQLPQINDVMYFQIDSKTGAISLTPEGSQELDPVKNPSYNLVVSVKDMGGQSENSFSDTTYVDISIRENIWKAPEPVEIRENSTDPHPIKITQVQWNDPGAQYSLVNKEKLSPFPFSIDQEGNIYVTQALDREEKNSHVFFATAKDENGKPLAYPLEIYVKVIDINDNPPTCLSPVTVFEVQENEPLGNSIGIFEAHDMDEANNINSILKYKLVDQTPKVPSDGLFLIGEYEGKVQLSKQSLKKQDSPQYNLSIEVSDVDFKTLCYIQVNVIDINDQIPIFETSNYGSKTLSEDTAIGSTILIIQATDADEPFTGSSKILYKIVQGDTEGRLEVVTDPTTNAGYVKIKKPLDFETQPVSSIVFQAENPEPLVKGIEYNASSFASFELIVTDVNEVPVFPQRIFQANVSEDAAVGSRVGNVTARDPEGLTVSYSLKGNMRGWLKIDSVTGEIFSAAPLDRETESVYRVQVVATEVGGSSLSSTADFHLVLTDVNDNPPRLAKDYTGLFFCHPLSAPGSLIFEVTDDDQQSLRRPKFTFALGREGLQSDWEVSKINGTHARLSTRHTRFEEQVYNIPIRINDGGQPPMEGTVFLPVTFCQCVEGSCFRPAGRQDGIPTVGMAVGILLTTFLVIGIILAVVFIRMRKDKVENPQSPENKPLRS
T2 sequence (P55281 22-827): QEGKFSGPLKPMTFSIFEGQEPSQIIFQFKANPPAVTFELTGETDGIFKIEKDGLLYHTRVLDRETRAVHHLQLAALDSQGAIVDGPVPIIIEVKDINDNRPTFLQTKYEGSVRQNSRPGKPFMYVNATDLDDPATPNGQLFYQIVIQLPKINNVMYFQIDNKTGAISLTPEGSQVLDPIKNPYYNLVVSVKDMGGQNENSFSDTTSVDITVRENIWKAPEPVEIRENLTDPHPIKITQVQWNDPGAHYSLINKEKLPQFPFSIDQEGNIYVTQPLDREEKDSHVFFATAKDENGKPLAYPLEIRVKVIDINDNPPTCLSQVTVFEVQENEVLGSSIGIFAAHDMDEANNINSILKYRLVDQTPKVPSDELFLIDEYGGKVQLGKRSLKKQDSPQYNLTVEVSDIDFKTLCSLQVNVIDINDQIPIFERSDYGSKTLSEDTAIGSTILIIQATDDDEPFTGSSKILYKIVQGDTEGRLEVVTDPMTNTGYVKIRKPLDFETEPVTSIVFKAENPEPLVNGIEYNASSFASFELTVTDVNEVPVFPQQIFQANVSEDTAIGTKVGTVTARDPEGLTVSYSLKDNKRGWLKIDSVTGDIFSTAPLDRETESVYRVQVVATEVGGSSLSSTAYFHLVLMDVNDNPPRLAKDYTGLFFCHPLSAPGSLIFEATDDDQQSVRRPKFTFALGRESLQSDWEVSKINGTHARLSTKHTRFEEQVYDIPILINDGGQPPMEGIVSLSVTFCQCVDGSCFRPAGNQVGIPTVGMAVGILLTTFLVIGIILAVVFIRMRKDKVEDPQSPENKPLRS

B1: 07-0653-h43scFv anti-CDH17 scFv (scFv)
scFv: DIQLTQSPSSLSASVGDRVTITCRATSSLSYIHWYQQKPGKAPKPLIYEISKLASGVPSRFSGSGSGTDYTLTISSLQPEDFATYYCQQWNYPFTFGQGTKLEIKGGGGSGGGGSGGGGSQVQLVQSGAEVKKPGASVKVSCKASGYTFTDYYMNWVRQAPGQGLEWMGVIYPYSGGIGYAQKFQGRVTMTVDKSTSTAYMELSSLRSEDTAVYYCARGRGDYFGLFDFWGQGTTVTVSSHHHHHH
notes: VL-linker-VH; also called CDH17-653-h43scfv
In the case of B1, the FL4-H in assay [1] worked out at 2.21e+06.

B2: 07-0646-h7scFv anti-CDH17 scFv (scFv)
scFv: DIQLTQSPSSLSASVGDRVTMTCRASSSVSSSYLHWYQQKPGKAPKLLIYSTSNLASGVPSRFSGSGSGTDYTLTISSVQPEDFATYYCQQYDSSPSTFGQGTKLEIKGGGGSGGGGSGGGGSQVQLVQSGAEVKKPGASVKMSCKASGYTFTSYNMHWVRQAPGQGLEWIGAIYPGNGDTSYAQKFQGRATLTVDTSTSTAYMELSSLRSEDTAVYYCARGRGRYFEYWGQGTTLTVSSHHHHHH
notes: VL-linker-VH; also called CDH17-646-h7scfv; 07-0646-7scFv
Regarding B2, the FL4-H in [1] was 864000.

B3: 07-0663-h7scFv anti-CDH17 scFv (scFv)
scFv: DIQMTQSPSSLSASVGDRVTITCRVSSIISSSKLHWYQQKPGKAPKPLIYGTSTLASGVPSRFSGSGSGTDYTLTISSLQPEDFATYYCQQWSNYPFTFGQGTKLEIKGGGGSGGGGSGGGGSQVQLVQSGAEVKKPGSSVKISCKVSGYTFTDHTIHWMRQAPGQGLEWIGYIFPRDDIVVYAQKFQGRATLTADKSTSTAYMELSSLRSEDTAVYYCARPPYYYSRNFYFDYWGQGTTLTVSSHHHHHH
notes: VL-linker-VH
In [1], B3 came in with an FL4-H of 2.05e+06.

B4: 07-0653-h43-VC-PAB-MMAE (antibody, human IgG1, DAR about 4, V domains shown)
VH: QVQLVQSGAEVKKPGASVKVSCKASGYTFTDYYMNWVRQAPGQGLEWMGVIYPYSGGIGYAQKFQGRVTMTVDKSTSTAYMELSSLRSEDTAVYYCARGRGDYFGLFDFWGQGTTVTVSS
VL: DIQLTQSPSSLSASVGDRVTITCRATSSLSYIHWYQQKPGKAPKPLIYEISKLASGVPSRFSGSGSGTDYTLTISSLQPEDFATYYCQQWNYPFTFGQGTKLEIK
modifications: MC-VC-PAB-MMAE on free thiols of cysteines from reduced interchain disulfides; positions not given; MC-VC-PAB-MMAE on free thiols of cysteines from reduced interchain disulfides; average 4 MMAE per antibody; positions not given
notes: also called CDH17-ADC-653-h43; 07-0653-h43-MMAE
For B4, the “ADC Binding Activity by Flow Cytometry” value in [2] was determined as 35100.

B5: 07-0663-h7-VC-PAB-MMAE (antibody, human IgG1, kappa, DAR about 4, V domains shown)
VH: QVQLVQSGAEVKKPGSSVKISCKVSGYTFTDHTIHWMRQAPGQGLEWIGYIFPRDDIVVYAQKFQGRATLTADKSTSTAYMELSSLRSEDTAVYYCARPPYYYSRNFYFDYWGQGTTLTVSS
VL: DIQMTQSPSSLSASVGDRVTITCRVSSIISSSKLHWYQQKPGKAPKPLIYGTSTLASGVPSRFSGSGSGTDYTLTISSLQPEDFATYYCQQWSNYPFTFGQGTKLEIKR
modifications: MC-VC-PAB-MMAE on free thiols of cysteines from reduced interchain disulfides; positions not given; MC-VC-PAB-MMAE on free thiols of cysteines from reduced interchain disulfides; average 4 MMAE per antibody; positions not given
For the molecule B5, the “ADC Binding Activity by Flow Cytometry” value in [2] came out at 67400.

B6: humanized anti-CDH17 antibody 07-0646-h7 (antibody, human IgG1, V domains shown)
VH: QVQLVQSGAEVKKPGASVKMSCKASGYTFTSYNMHWVRQAPGQGLEWIGAIYPGNGDTSYAQKFQGRATLTVDTSTSTAYMELSSLRSEDTAVYYCARGRGRYFEYWGQGTTLTVSS
VL: DIQLTQSPSSLSASVGDRVTMTCRASSSVSSSYLHWYQQKPGKAPKLLIYSTSNLASGVPSRFSGSGSGTDYTLTISSVQPEDFATYYCQQYDSSPSTFGQGTKLEIK
notes: C-terminal lysine kept in the humanized antibodies; also called CDH17-646-h7; 07-646-h7
Consider B6, for which the dissociation constant Kd in assay [3] was 0.532 nM; in [7] it was < 1 nM; in assay [13], 0.817 nM; in [16], 0.817 nM. For the same molecule, the “Cross Reactivity by Flow” value in assay [4] stood at 2200; in [11] it was 50500; in [21], 2510. Also, the “Antibody Binding Activity by Flow iQue” value in assay [5] turned out to be 120000; in assay [6], 2.86e+06; in assay [9], 95600; in [10], 21400; in assay [12], 181000; in assay [14], 50500. The “Antibody Binding Activity by Flow iQue” value amounted to 2.66e+06 in [18] and 74900 in [20]. The binding result in [8] and in [19] was “no binding (tested: 1 µg)” throughout. Moreover, the “Antibody Binding Activity by Flow Cytometry” value in assay [15] came to 47200. The EC50 in [17] was determined as 0.73 nM.

B7: 07-0646-h7-VC-PAB-MMAE (antibody, human IgG1, DAR about 4, V domains shown)
VH: B6 VH
VL: B6 VL
modifications: MC-VC-PAB-MMAE on free thiols of cysteines from reduced interchain disulfides; positions not given; MC-VC-PAB-MMAE on free thiols of cysteines from reduced interchain disulfides; average 4 MMAE per antibody; positions not given
notes: also called CDH17-ADC-646-h7; 07-0646-h7-MMAE
As for B7, in assay [2], the “ADC Binding Activity by Flow Cytometry” value was 73500.
